The values that follow come from article PMC2959088.

The target of the test is human cathepsin L (human). Kind of test: enzyme inhibition assay (residual activity on the fluorogenic substrate Z-Phe-Arg-MCA); cathepsin B or L (0.3 nM) incubated 5 min at 37°C with varied inhibitor in 100 mM sodium acetate pH 5.5, 2.5 mM DTT; substrate 0.01 mM; triplicate; Ki(app) by non linear regression (GraFit), Ki by Morrison's procedure.

B1: Oryzacystatin-1 (natural protein)
chain: MSSDGGPVLGGVEPVGNENDLHLVDLARFAVTEHNKKANSLLEFEKLVSVKQQVVAGTLYYFTIEVKEGDAKKLYEAKVWEKPWMDFKELQEFKPVDASANA
B1 registered a Ki of 730 pM.
